Data published in the NTF2 design screens of Basanta et al. (2020).

Assay: protease stability score; higher = more stable; yeast display proteolysis, trypsin and chymotrypsin;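 also: log10 excess protease needed over predicted unfolded state with 0 meaning unfolded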

Row | Sequence | protease stability score
1 | DEEDQKNFAEQANRALHHGDPRQMATLADKDAEVTVGDREYKGRRDINEAMKDWSDQVDSIEVKSVTVQGNNIVVHFVFVHNGHEHKVVMRITMEGDKATSIHLDEK | 0.336
2 | DEEDQKRKANNVAENLINGNEDEARKYIDKDARVHVGDKTYRGREEARKVWHELRKKVDHLRVEHIDVQGDKVDVQAFFRHNGNQTNIQVHIRMENGHVKSISVDNR | -0.216
3 | DEEDQKRVLQEIVRMIQSGDPSQAKRLADPNATAEVGDKTYHGREKLSKYAKDLHDRVDRVHIQHYTVEGNKARIRVEVSVNGRTRQFEVKVQYHNGHITRLKVDTS | 0.05
4 | DEEDQKTVEEFLHNLEKNNEDQIKRLLDKDVKFIIGDKELHGMEDAVDRLRRHIEEMKVRIESVSNTVSGDKVVVDFTFIEDQNGKPDRKRMKIEFRFHNGKAKEIRIETRQ | 1.38
5 | DEEDQKVFERILEIFKTGDEEEAQKNMDKDVRVQYGDKQLHGRENIARELQTKMNELRYKFSIESVENHNGQVRVNFQFVENHNGRPSRKKAKLVVHFRNGKLRNFEQQDVS | 0.534
6 | DEEDQLKEIVERVHDVYKHGDEDKVRKMVDPNARARIGDKRIHGHDNFAKMIAEWKRKADSVSVHVEEFRVSGNKMTMTIRIKMDHNGRDTTFRYTAVATNTNGRVRVVRIQEK | 0.049
7 | DEEDQRRVAHDAADALRTGDPDRMVQLADPNVTLDIGDKRFTGDEEFHKAMKEISRQVDHMKIDSYTVRNGRASISAVLEVNGKRKRVFFVFVIHNGRIKELHIKTE | 1.59
8 | DEEDQRTIAKEVVKVMETGDEDRMRELVDEDVKVQYGDKTVHGREQAQRAMKDLRRRADHITMDSVTVHNGEITIKAQLKYNGQNQRVVVQVRVHNGKIKEFRFREQ | 1.34
9 | DEEDRHELQRRAEHGDFLNLAHNADPNAHIKVGDKDLTGREDLDHVLRKMHNRIDRYHLVHVTKTGDKLVVRAQARVDGRDIEFKMEIRARNGRIKEVSIRFRSEEDQKTFEKLLK | 0.059
10 | DEEDRKSLHDLNRTGDEDEIAHNVDPNAKLDVGEFKVHGSEQVKKVMEELKKRIDHRHIRSISVRGDKLVARVQIDVNGQTAYYRLIIRVHNGRIKEINADYTSEDDKKAVNEAKS | 0.756
11 | DEEDRRKAKEAAERNDWKHFSDQMDEDVRVLVGDKRFHGREEAKQFVQKVEDRADTQSVDSVDVQGNQVDLDMKLNINGNDVRAQFEFYFHNGRIKEIKVTFTDPREERQFKELIK | 1.25
12 | DEEDSKQMKQVLEAIRRGDEDHVRQQFDPNARIRVGDKEYHGMEEYASDLRSKRSKLDHKINLKTMSASNGRIDFVVQVQFTIDGQPVTDEVRATAVVHNGKIVSLSNEVDEERISEVEK | -0.705
13 | DEEDVDRAARKFAEGNPDDVLKLADPNAELHVGDQTVHGKEDLERVMELDKRRIDHIHVNSMSVQGDNVKVLFKVVVNGRNIEFTLTANAHNGSIQFVMLNFTDERDEDKRRKALS | 0.28
14 | DEEDVDRFAKTFAEIFQSGNPENIREMMDPNARLHVGERTYHGRETIVQYLKRLRRDVDSIHLVSITNHGESIVIKVSLDVNGQHVVVHINVHFQNGRIKSMSMTYRDEEDRKKYEG | 2
15 | DEEDVEKMVRLVRDGDWEQFARNADENVRIQIGNREVHGRNEAHKAADKLTKHIDHFRIDRYDRNGDKLDVLFRMTVNGQEVKARMYVEVHNGRVTRMEIRATSEEILKRIDEVLS | 1.37
16 | DEEDVKKAETLIKNGDWERIANHLDPNAKATYGDKTFHGHEELKRVIKNLQDQVDSLHIHKVDVQGNSVIVSADLHVNGETLKMTFVMHVHNGRVKEVSANVTSSELKELLDHMLS | 0.749
17 | DEEDVKKILDKVLKMAVKGDKDQVKTMLKPDVEYIHIDEKRQGQQVAEQVHKEIKKVGARAEIKEKTVEGDKAKVTYQFKVNGRTVEVTAEVEAKDGRVDKWQVHISDEAKEMMTKG | -0.289
18 | DEEDVKRAERFQKHYQQGNTEEMRKLLDKNARIEVGDKTLHGRDDAKDKLRKNLDNWRFSMDSVDNKLKNGQVRIDIKYRMVINGRPFSITYKLNVKFENGKVQFMEDRISEDDQRHLEK | 0.582
19 | DEEDVKRAVEIFNTNNEEDLRRLVDKHAKITVGDKDVHGRKTAETLIHKLNSQADRIHLESVHKNGEQVVIKMVADVNGEKLDFQIVFVIKNGRLTSQRNVARNEDVERTLKNLYS | -0.119
20 | DEEDVKRFAREFFTALQKNDEKKVTDLVDENARAEVGEREYHGREDVATMLARFNKRVDHAHLKRLEVTGDQVIMVFEVVHDGRKTNVSIDMRVHNGRLLEFRMETS | 1.41
21 | DEEDVKTLMNLMRNNNFEDLQRMADPNAKVIVGDQTYQGQKEVRTFLHKLKDQIDHLDIKSLDYHNGRVVLDVEATVNGQRFRYVLTVDVHNGHVKSVRFQARSEKDERILKEQAS | 1.11
22 | DEEDVKTMIRIINTGDPDKFEKYFDPNASVRIGDHTFKGNKQVSEFIRRMRRKADHIEVKRVKTTNGRADIDLVVTFNGREIRFHVHAEAHNGKAERQELKVTDPNQQKELNNLVH | 0.837
23 | DEEDVRRMENVVRENNEHRLAQLADKNARMTVGDQTYHGKEKIAEAIRRVQKQVDHMEIERLTIHGDKIRADVTMVVNGQRFRYVVVFNVKNGRLKERSVNFRDERDSEEFKKIEK | 0.021
24 | DEEDVRRVAKQAKEYVQKGNKEKLMDLGKEGVDYRVLDHKAKGPEAIKTMQDYLERKGARVEVKKLEVKGDQVRTEVHYKQGDTTATAEVHATVKGGKIDKVKVDLSDRAKEILKHG | -0.141
25 | DEEDVTRLAEEMVRAFESGNPEDWVKMLDENARVRIGDKVYHGREQVQTFANSWVSRADHARVESFSVHGDNIHIKAVMDIDGVRVQVIIVARAHNGRVQELRVEWRNEDQKKHVDK | 1

Row | Sequence | protease stability score
26 | DEEDYKKMNEQLERIYKHGDPEEAEKMFDPNAKAEVGDKTIHGREEFRKYQQDRKDQADHVQVKDFKVQGERFVMEVVAHVNGREVRQVVNFTVHNGKIQDLKVREK | 0.013
27 | DEEDYKSIATEFVQALREGDEQHFRRLLDEEVNNDVGDKRIRGREKVETELRKILHKVDHVDVKDYKVHNGHVTVDMRFDDNGKEERWTMQAQFHNGRLKSIWMRTR | 1.08
28 | DEEEADKVAKDFNRMLTKGDEHRASQLFDENATVVVGDKTVHGTESIKKIIHEIHRKADHIEIDSVKNRGNKVQVDLHQDINGTRERYVFHVSFHNGRIKYAEINQD | -0.322
29 | DEEEADSWMKILQTNDEKKARDNIDPNATAHVGEQRFDGAQDFVARFMQVLKSADHVRIHSVDHEGDKVRMDITFDINGQRARVVLNIQIKNGRVVHVSVEVRNEEVKKVFDKALK | 0.16
30 | DEEEAEKILEKLVKAVENGDETKLMQLGADGVRYKVGDREDHGPEAIQKAMQYLKRYGVRVEFKEVKHKGDRVTTVAEYENGDKRNTVTIHAHAKGGKIDEVQVNVDEDLVKFIKHG | 0.266
31 | DEEEAHELLKKVLHYTVKGNVDELRKFVKPDLKYVLGDQEHQGSQVADQVEKEIRRQGTRLEVEKAEVKGDKAELQYRFTVAGKTFTLHVRVRAKDHRVDEWKVEMTDDVKEYQKKG | 0.391
32 | DEEEAHKFQEAVERNDFEKFVRNADPNAHVQVGDQHIDGHDKMRKQYHDLKRAADKIEYKSIDVQGDKIDVKFTVRFNGREYEVHMQIEVHNGRLKTVKYDATSEHNRTILQEMMS | -0.032
33 | DEEEAHKVKDVVENGDPDTLQNMADKDATARYGDKQVHGREQVRTAIKLWMDHVDHIDIRNIHVEGNKVNVDAVFNVNGRNLNVRFRMEVHNGKIKSFELQATDERIRETLERILS | 1.02
34 | DEEEAHKVQEAWKTGDPDHLRDLFDKDVRLVYGDQEVHGREELVKIFKKQQDQYDHQHIERVSLTGNRVEIRYKAVVNGQTVSRVIYIKIKNGRIKEMEIRATNPEELKEMYRLAS | 0.284
35 | DEEEAKEFADVFKNGDQDRYADLFDPNARVNIGNKEYHGRERVRTAVRTFFQRIDHIQVNHVRIEGNQLRIDAKMEINGQRIQVVFKVRIHNGHIKQFVVDFRDEQTMREFHKQLE | 1.27
36 | DEEEAKEMMEKWMKIVEKGDSDKAQKIYKPNVVWENVDKKTQGVKQVKEMVKRIKDQGMEFQVRRAEVEGNTVEVQYDVRIGNTTVTFKVQVKAEGGRIDEVRVELDETAVKQLKKG | 0.31
37 | DEEEAKKFMETWQKAVEKGDTKTARELYDPNVEWIDYSQRHQGVEMVVKQMQQVKKKGVEFQIRKAKVEGNEVEVVYDANIGNETATFTVQFRAEGGRVKEVRVKMDEKAKKIKREG | 0.064
38 | DEEEAKKIVETVVKAVENGDVEKLKQMIKEGGKYKVINRERHGPEAVEEVIRLLQKAGVEMEFKEVRVEGNTATTRVEYRHGDKEAEVKVTATMQGGRIDEVRFKMSEEAQKMVEHG | 1.08
39 | DEEEAKKNVKVWEQNDPDTFNKLVDKDAKAVIGDKEVHGRSEINRIIKRLLQQADHWQVDEVHIHNGRVHISYQFVINGQRLDVRVTIELRNGRIKDVKVHFTDDEQKKRANENVR | 0.943
40 | DEEEAKKVLDKAVKAVKNGDLKHLKDLGKDGVEYRIADKKAHGPEQIEKVMEYLHRKGVRIEFKRQEVKGNTVTTDIEYQQGDETYTVQAHATVKGGRIDKVEIDVSERAKKVMDHG | 0.149
41 | DEEEAKKVMEKWMKVVQKGDKDKVKKLYPPNVNWLNINTQKQGVEVVVKMMKQVQDKGAQFQVRRAEVKGDEAEMQYDLRIGDKTATFTVRIRAKGGQVEMVEVKVTEEAKKIVDTG | 0.111
42 | DEEEAKKVVDQAVKYFQNGDAEKLRDLGKEGVKYRVADVEAHGPEVVLKAVERLKRQGVKIQYRKVEVKGDTVTTQLDYQQGDRTFTVTIEAEVKGGKIDRVEADANEDAKKIVKHG | 0.172
43 | DEEEAKKVVETAVKYLQKGNVKQLKDIGHEGVDYQVADNKKKGPDAIEDVLRYLEKLGVRMEVKKQEVKGDTAHTVVDYQQGDTKVRATVEADIQGGRIDRVQVNVPETLKKILKHG | -0.284
44 | DEEEAKRQMEEFAHGDPDKMVNNVDENADAVVGDRRFHGRKDIKEWAERMKKRIDTNKYEHVEQQGDKVDAIYNITVNGQELRFKLVIKIDNGRVEYVKVDVTDEENLKILQEIFS | 0.121
45 | DEEEAQDVLQEVFKAVSRGDEDRAEQLADPNAKAEYGDKSYHGKKVIKEAVRRMSEQADHFEFKHIDHDEGRVVFDMEIEFNGQTFKVKVKAQAHNGRAQNFKFQFRSEDDLERLQS | -0.23
46 | DEEEAQKFRKHAKSNDQDNMRRMMDEDVRVIVGDFEVQGREDAEENLLRLNQRVDHISVKSIDVQGEHVTVDVEMTIDGTKFVVVYVVQFHNGRIKQLDLRARDEKDEKAFRRAVG | 0.234
47 | DEEEASTIAKVFRTNNWEELVRLADENAKVKVGDKEVHGRHVVDEMVKLISDAADTIKYDSYTVQGEKIEMVVKLVINGQKVEFKLTARAHNGRIKEIVLSVRDEDQKRKFEKEDG | 0.783
48 | DEEEDAEKLLERREKVFRQGDPDQMQRMMDPNARIKVGDREVHGREEVDRTLLEQARKADHIRFELKDMRVQGDKVVLDVHVKFEVNGRHQSRQVQYVAQFHNGRYTFRSARER | 0.047
49 | DEEEDEKFVEFLKNVERGNEDKLRELVPPDAKNQVGDTVVEGRDEWLKKLTSELKKSRVTYNVKSVSASNGRMSLVVDVTVDENGRPQKRDLRIDATVHNGKWQKVHLKFDS | 0.342
50 | DEEEDKKMLDNINTIWERGNPDEIEKLIDPNARVQVGDKTLHGREQIKHFLKRLHERIDHFEYQSVSAHNGRMRARVRFRVNGVHVRMEIDATYNNGKVKKMEVRVTDEKHLERARK | 0.741
